The target in this experiment is biotin-ahx-ahx-EPQpYEEIPIYL (biotinylated pTyr peptide derived from the protein MidT). Description: BLI; Octet RED96 (ForteBio); biotinylated peptides immobilised on a streptavidin biosensor; SH2 variants at 300, 150 and 0 nM.

“SH2-WT (wild-type Fyn SH2 domain), 6xHis-tagged protein (from UniProt P06241 149-246) (domain or fragment)”: the Kd amounted to 267 nM.

For the origin of these results see article PMC9204161.
